# Experimental data reported in EP4631972A1, “SITE-SPECIFIC COUPLED PEGYLATED INTERLEUKIN-2 MUTANT WITH RECEPTOR AFFINITY PREFERENCE AND USE THEREOF” (priority 2022, dated 2024).
# pEC50: −log10 of the molar value.
# What was measured:
# [1] = mouse, in vivo, sc, 1 mg/kg
# Experimental: (§1) Balb/c mice were purchased, with 4 mice in each group. Each IL-2 mutant to be tested was administered subcutaneously once at a dose of 1 mg/kg. Blood was collected from the orbit at different time points after administration, and the plasma was separated and the plasma drug concentration was detected by ELISA. The main pharmacokinetic parameters were calculated, and C-T curve was plotted.
# [2] = Pharmacokinetic study in mice, single administration, plasma concentration by ELISA; conditions: 1 mg/kg s.c. single administration
# Experimental: as §1
# [3] = Pharmacokinetic study in cynomolgus monkeys; conditions: cynomolgus monkey
# Experimental: Blood was collected before and after administration (4h, 8h, 24h, 48h, 72h, 120h, 168h, 240h, 336h) in the first cycle and after administration (8h, 24h, 48h, 72h, 120h, 168h, 240h) in the second cycle to detect plasma drug concentration.
# Treg cells [4] = experiment: Pharmacodynamic (PD) study in mice, peripheral Treg cells; type: in vivo, Balb/c mice; conditions: 1 mg/kg s.c. single administration
# Experimental: In this example, the pharmacodynamics (PD) of each IL-2 mutant obtained in Example 6 was studied in mice after a single administration to mice. SPF grade Balb/c mice were purchased and randomly divided into groups according to body weight, with 3 mice in each group. Drug administration started on the day of grouping. The dosing and grouping information is shown in Table 9, where G1-G5 were administered once, G6 and G7 were administered once a day, for a total of three doses. 30 µl of blood was taken from each group of mice, for PEGylated IL2 mutants and the negative control, blood was collected on day 0 (pre-administration), day 2, 3, 4, 5, 6 and 7 (only for G3, G4 and G5), and for IL2 and IL2-N88R, blood was collected on day 0 (pre-administration), day 1, 2 and 3. The number of each cell subpopulation was measured by flow cytometry. Antibodies against the staining marker used in flow cytometry are shown in Table 10, and the gating settings are shown in Table 11. Table 9 Dosing and grouping table for single-dose PD study in mice
# Treg cells [5] = experiment: P-STAT5 activation in Treg cells of human PBMCs (flow cytometry); type: cell-based; conditions: P-STAT5 MFI in CD3+/CD4+/CD25+ cells of human PBMCs, 30 min stimulation
# Experimental: In the example, the activation effect of each mutant prepared in Example 6 on P-STAT5 in different cell subsets (Tregs, CD8+T cells, NK cells) from human PBMCs (Miaoshun Biotechnology) was detected.
# Human PBMC cells were thawed and resuspended to 1.5×10^6 cells/ml in RPMI1640 medium containing 10% FBS. 100 µl was added to each well of a V-bottom 96-well culture plate. Each IL-2 mutant prepared in Example 6 was diluted 10-fold in series: 1000 nM was used as the working concentration for the first well, and then 100 µl/well of each serial dilution was added to each cultured cell, stimulated at 37°C for 30 min, and the reaction was terminated on ice. The cells were treated with a commercial fixative and permeabilization agent (BD biosciences 558049 & 558050), and stained with antibodies against CD3, CD4, CD25, and CD8 according to conventional methods. P-STAT5 antibody staining was also performed (Table 7) to detect the mean fluorescence intensity (MFI) of P-STAT5 in CD3+/CD4+/CD25+ (Treg cells) and CD8+/CD3+ cells ([…]) by flow cytometry.
# Treg cells [6] = experiment: Pharmacodynamic study in cynomolgus monkeys, peripheral Treg cells; type: in vivo; conditions: doses ≤400 µg/kg
# From the text: For information on administration and grouping, see Table 14.
# [7] = female, first-cycle dosing 50 µg/kg s.c.
# [8] = female, second-cycle dosing 400 µg/kg s.c.
# [9] = male, first-cycle dosing 50 µg/kg s.c.
# [10] = male, second-cycle dosing 400 µg/kg s.c.
substance,measurement,setting,value
60K-1PEG-IL2-N88R-N77C: IL2-N88R-N77C with 60 kDa PEG conjugated to the cysteine at position 77,T1/2,[1],20.78 ± 1.92 h
same,AUC inf,[2],392.06252 ± 33.89153 µg·h/mL
same,AUClast,[2],380.55249 ± 34.19595 µg·h/mL
same,CL,[2],2.56±0.22
same,Cmax,[2],6.63354 ± 0.58169 µg/mL
same,MRT,[2],39.45 ± 0.44 h
same,Tmax,[2],8 to 24 h
same,mean half-life,[2],20.78 h
same,mean residence time (MRT),[2],39.45 h
same,AUC inf,[3]; [7],181.7098 µg·h/mL
same,AUClast,[3]; [7],148.6109 µg·h/mL
same,CL,[3]; [7],0.28
same,Cmax,[3]; [7],0.7010718 µg/mL
same,MRT,[3]; [7],128.4211 h
same,Tmax,[3]; [7],72 h
same,AUC inf,[3]; [8],2158.472 µg·h/mL
same,AUClast,[3]; [8],1360.931 µg·h/mL
same,CL,[3]; [8],0.19
same,Cmax,[3]; [8],10.41965 µg/mL
same,MRT,[3]; [8],101.9 h
same,Tmax,[3]; [8],8 h
same,AUC inf,[3]; [9],213.0031 µg·h/mL
same,AUClast,[3]; [9],157.7992 µg·h/mL
same,CL,[3]; [9],0.23
same,Cmax,[3]; [9],0.8152866 µg/mL
same,MRT,[3]; [9],135.9233 h
same,Tmax,[3]; [9],48 h
same,AUC inf,[3]; [10],2122.205 µg·h/mL
same,AUClast,[3]; [10],1412.112 µg·h/mL
same,CL,[3]; [10],0.19
same,Cmax,[3]; [10],10.19977 µg/mL
same,MRT,[3]; [10],100.7 h
same,Tmax,[3]; [10],8 h
same,"activation peak of Treg proportion, time",Treg cells [4],6 days
same,increase in Treg proportion at peak,Treg cells [4],about 15 fold
same,pEC50,Treg cells [5],7.46
same,activation and proliferation of peripheral blood Treg cells,Treg cells [6],clear activation and proliferation
